According to paper PMC4673130:

Molecular target: T1, HA-tetherin (wild type), Q10589
T1 chain: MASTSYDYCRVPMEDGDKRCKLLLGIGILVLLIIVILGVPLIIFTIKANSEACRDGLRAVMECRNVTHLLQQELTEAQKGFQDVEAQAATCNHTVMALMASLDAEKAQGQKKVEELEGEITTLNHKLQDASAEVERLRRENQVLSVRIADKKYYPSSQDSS
Experiment: non-reducing SDS-PAGE and immunoblot; lysates of HEK293 cells transfected with HA-tetherin with or without SHBs plasmids; SDS-PAGE in the absence or presence of 2-mercaptoethanol, blot with anti-HA; dimer and monomer bands
Conditions: remark: other sources report otherwise

B1: HA-tetherin (wild type), Q10589 1-161 (natural protein)
chain: MASTSYDYCRVPMEDGDKRCKLLLGIGILVLLIIVILGVPLIIFTIKANSEACRDGLRAVMECRNVTHLLQQELTEAQKGFQDVEAQAATCNHTVMALMASLDAEKAQGQKKVEELEGEITTLNHKLQDASAEVERLRRENQVLSVRIADKKYYPSSQDSS
stoichiometry N: 2
